Measured values from the nanobody polyreactivity screen of Harvey et al. (2022).

Experiment: yeast display, Sf9 membrane polyspecificity reagent, FACS + sequencing; frameworks hold sequencing errors
Summary of the method: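 Polyreactivity labels are assigned by the sorting gate from which each nanobody was recovered. The gates were low and high (top ~1%), set on anti-HA fluorescence for expression and streptavidin fluorescence for reagent binding. Before sorting, galactose-induced (36–48 hours) yeast display cells were stained for 1 hour at 4 °C with 10% biotinylated, detergent-solubilized Sf9 membrane reagent.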
In the case of “QVQLVESGGGLVQAGGSLRLSCAASGIIFYGYAMGWYRQAPGKERELVAAISRSGGSTYYADSVKGRFTISRDNAKNTVYLQMNSLKPEDTAVYYCAAVRIRPLRYYYWGQGTQVTVSS”, the “polyreactivity (PSR sort gate)” value was “high polyreactivity”. With “QVQLVESGGGLVQAGGSLRLSCAASGSIFKLNAMGWYRQAPGKERELVAVINKSGGRTYYADSVKGRFTISRDNAKNTVYLQMNSLKPEDTAVYFCNAVSKLAVNLDYWGQGTQVTVSS” the “polyreactivity (PSR sort gate)” value was “high polyreactivity”. In the case of “QVQLVESGGGLVQAGGSLRLSCAASGSTFLYYAMGWYRQAPGKERELVAVISWSGVSTYYADSVKGRFTISRDNAKNTVYLQMNSLKPEVTAVYYCNTGNHYIRTYGYWGQGTQVTVSS”, the “polyreactivity (PSR sort gate)” value was “low polyreactivity”. With “QEQLQESGGGLVLAGGSLRLSCSASGNISVYGSMGWYRQAPGKELEFVATIDPGTNTNYADSVKDRFTISRDNAKNTVYLQMNSLKPEDRAVYYCAVEAGSDWPFRYWGQGTQVTVSS” the “polyreactivity (PSR sort gate)” value was “low polyreactivity”. With “QVQLVESGGGLVQAGGSLRLSCAASGRIFLGYTMGWYIQAPGKERELVAAISYTGGSTYYADSVKGRFTISRDNAKNSVYLQMNSLKPEDTAVYYCAAGTRFSYYWGQGTQLTVSS” the “polyreactivity (PSR sort gate)” value was “high polyreactivity”. In the case of “QVQLVESGGGLVQAGGSLRLSCAASGSIFRRNAMGWYRQAPGKERELVAGISGGGSTYYADSVKGRFTISRDNAKNTVYLQMNSLKPEDTAVYFCATDKHFRWAGFDYWGQGTQVTVSS”, the “polyreactivity (PSR sort gate)” value was “low polyreactivity”. With “QVQLVESGGGLVQAGGSLRLSCAASGRTFKYYTMGWYRQAPGKERELVAAITSDGSTNYADSVKGRFTISRDNAKNTVYLQMNSLKPEDTAVYYCAAEIRWVFLSYEYWGQGTQVTVSS” the “polyreactivity (PSR sort gate)” value was “high polyreactivity”. With “QVQLVESGGGLVQAGGSLRLSCAASGTTFFNNAMGWYRQAPGKERELVAAITSGRTYYADSVKGRFTISRDNAKNTVYLLMNSLKPEDTAVDYCAKDADQDADKPFQFTMDYWGQGTEVTVSS” the “polyreactivity (PSR sort gate)” value was “low polyreactivity”. In the case of “QVQLVESGGGLVQAGGSLRLSCAASGIIFSWYSMGWYIEAPGKERELVAAISWSGGRTYYSDSVKGRFTISRDNAKNNVYLQMNSLKPEDTAVYYCAAERNRYSHWEARYYWGQGTQVTVSS”, the “polyreactivity (PSR sort gate)” value was “high polyreactivity”. In the case of “QVQLVESGGGLVQAGCSLRLSCAASGSTFWFNGMGWYRQAPGKERELVAVITFSTGSTSYADSVKGRFTISRDDAKNTVYLQMNSLKAEDTAGYYCAAEYVIYYCFEWLDLDYWGQGTQVTVSS”, the “polyreactivity (PSR sort gate)” value was “high polyreactivity”. For “QVQLVESGGGLVQAGGSLRFSCAASGSIIFDGNAMAWSRQAPGKEREMVADITTSDGRTYYADSVKGRFTISRDSAKNTVYFQMNSLKPEDTAVYDCAKPNGYHGGRYDYWGQGSQVTVSS”, the “polyreactivity (PSR sort gate)” value was “low polyreactivity”. For “QVQLVESGGGLVQAGGSLRLSCAASGSIFDGNAMGWYRQAPGKERELVAAISGGGRTYYADSVKGRFTISRDNAKNTVYLQMNSLKPEDTAVYYCAAAYTFYVYGSYKVTLDYWGQGTQVTVSS”, the “polyreactivity (PSR sort gate)” value was “low polyreactivity”. In the case of “QVQLVESGGGLVQAGGSLRLSCAASGRIFWYYAMGWYRQAPGKEWELVATITYSGVRTYYADSVKGRFTISRDNAKNTVYLQMNSLKPEDTAVYYCAAVPGASVYGYYWKFGYWGQGTQVTVSS”, the “polyreactivity (PSR sort gate)” value was “high polyreactivity”. In the case of “QVQLVESGGGLVQAGGSLRLSCAASGFTFYKNTMGWYRQAPGKVRELVAAISSSGSSTYYADSVKGRFTISRDNAKNTVYLQMNSLKPEDTAVYYCAAGRFAYHDDYWGQGTHVTVSS”, the “polyreactivity (PSR sort gate)” value was “high polyreactivity”. In the case of “QVQLVESGGGLVQAGGSLRLSCAASGLIFSTYAMGWYRQAPGKERELVASISSSGGSTYYADSVKGRFTISRDNAKNTVYLQMNSLKPEDTAVYYCAAVTKRYQPTYYITYGYWGQGTQVTVSS”, the “polyreactivity (PSR sort gate)” value was “high polyreactivity”. For “QDQLVESGGGLVQAGGSLRLSCAASGSTFSWYAMGWYRQAPGKERELVAAINNRSGSTSYADSVKGRFTISRDNAKNTVYLQMNSLKPEDTAVYYCAAEGTDGLYDWEYDYWGQGTQVTVSS”, the “polyreactivity (PSR sort gate)” value was “high polyreactivity”. For “QVQLEESGGGLVQAGGSLRLSCAASGRIFLWYAMGWYRQAPGKERELVAAISSNGGSTRYADSVKGRFTISRDNAKNTVYLQMNSLKPEDTALYYCNADVHWNRYPYGGNGYGYWGQGTQVTVSS”, the “polyreactivity (PSR sort gate)” value was “low polyreactivity”. In the case of “QVQLVESGGGLVQAGGSLRLSCAASGFIFRWYAMGWYRQAPGKERELVASIDSSGTRTYYADSVKGRFTISRDNAKNTVYLQMNSLKPEDTAVYYCNAEPSSLGETDYDYWGQGTQVTVSS”, the “polyreactivity (PSR sort gate)” value was “low polyreactivity”. For “QVQLVESGGGLVQAGGSLRLSCAASGSIFTNYAMGWDRQAPGKERELVAAIRSSGGSTYYADSVKGRFTISRDNAKNTVYFQLNSLKPEDTAVYYCAARKSYKYPVNSAVGYWGQGTQVTVSS”, the “polyreactivity (PSR sort gate)” value was “high polyreactivity”. In the case of “QVQLVESGGGLVQAGGSLRLSCAASGFIFRRYAMGWYRQAPGKERELVAAITSSGTSTYYADSVKGRFTISRDNAKNTVYLQMNSLKPEDTAVYYCNAAQYYERFNHWGQGTQVTVSS”, the “polyreactivity (PSR sort gate)” value was “high polyreactivity”. With “QVHLVESGGGLVQAGGSLRLSCASSGGIFVTYAMGWYRQAPGKERELVAAITSGDSTYYADSVKGRFTISRDNAKNTVYLQMNSLKPEDTAVYYCAVGSTDRVSAQGSYFTYDYWGQGTQVTVSS” the “polyreactivity (PSR sort gate)” value was “low polyreactivity”. With “QVQLLESGGGLVQAGGSLRLSCAASGRIIPYYAMGWYRQAPGKERELVATITSGGSTYYADSVKGRFTISRDNAKNTVYLQRNSLKPEDTAVYYCAARYPSIYYYRYDYWGQGTHVTVSS” the “polyreactivity (PSR sort gate)” value was “high polyreactivity”. In the case of “QVQLVESGGALGQAGGRLRLTCAASGSTFSIYGMGWYRQAHGKEREFVAALRTSGGRTYADSVKGRFTISRDNAKNTVYLQLNSLKPDDPAVDYCAAHVNYIYDWGQGTQVTVSS”, the “polyreactivity (PSR sort gate)” value was “high polyreactivity”. In the case of “QVKLVDSGGGLVQAGGSLRLSCAASGSIFAGYAMGWYRQEPGKVRELVAAINASGGSTYYADSVKGRFTISRDNAKNTVYLQMNSLKPEDTAVYYCNRVYKRYYIGGYDYWGQGTQLTVSS”, the “polyreactivity (PSR sort gate)” value was “high polyreactivity”. In the case of “QVQLVESGAGLVQAGGSLRLSCAASGHTFYYNTMGLYRQAPGKERELVAVISWSGSRTYYADSVKGRFTISRDYAKNTVYLQMNSLKPEDTAVSYCNAVYSHRREYWGEGTQVTVSS”, the “polyreactivity (PSR sort gate)” value was “high polyreactivity”. For “QVQLVESGGGLVQAGGSLRLSCAASGSIFWLYAMGWYRQAPGKERELVAAINWSTGRTYYADSVKGRFTISRDNAKNTVYLQMNSLKPEDTAVYYCAADLNWWFDYSSPDEMYYWGQGTQVNVSS”, the “polyreactivity (PSR sort gate)” value was “high polyreactivity”. In the case of “QVQLVESGGGLVQAGGSLRLSCAASGRTFGYYAMGWYRQAPGKERELVAAITRTGGSTHYADSVKGRFTISRDNAKNTVYLQKNSLKPEDTAVYYCARDYRYTIPYDYWGQGTQVTVSS”, the “polyreactivity (PSR sort gate)” value was “low polyreactivity”. For “QVQLVESGAGLVQAGGSLRLSCAASGRIFYWYAMGWYRQAPGKERELVAAIRRRVGSTYYADSVKGRFTISRDNAKNTVYLQMNSLKPEDTAVYYCAAVITSDGARYDYWGQGTQVTVSS”, the “polyreactivity (PSR sort gate)” value was “high polyreactivity”. In the case of “QVQLVESGGGLVQAGGSLRLSCAASGSNIYVYAMGWYRQAPGKERELVAAISSSSDSTYADSVKGRFTISRDNAKNTVYLQMNSLKPEDTAVYYCNKKNAVYFAYDYWGQGTQVTVSS”, the “polyreactivity (PSR sort gate)” value was “low polyreactivity”. In the case of “QVQLVESGGGLVQAGGSLRLSCAASGFTFSPYAMGGYRKAPGKERELVAAISSSGGSTYYADSVKGRFTISRDNAKNTVYLQMNSLKPEDTAVYYCATQGTRRPGKFYYWGQGTQVPVSS”, the “polyreactivity (PSR sort gate)” value was “high polyreactivity”. With “QDQHVESGGGLVQAGGSLRLSCAASGIIFWWYDMGWFRQAPGKERELVAAISTGSRTNYADSVKGRFTISRDNAKNTVYLQMNSLKPEDTAVYYCAGEWVGFSGYYGSGYEMDYWGQGTQVTVSS” the “polyreactivity (PSR sort gate)” value was “low polyreactivity”. With “QVQLVESGGGLVQAGGSLRLSCAASGSIFRGYAMGWYIQAPGKERELVAAITSRGGSTYYADSVKGRFTISRDNAKNTVYLQMNSLKPEDTEVYYCNKRVYYPWGQGTQVTVSS” the “polyreactivity (PSR sort gate)” value was “high polyreactivity”. In the case of “QVQLVESGGGLVQAGGSLRLSCAASGRTFKGYAMGWYSQAPGKDRELVAAISYRGGSTYYADSVKGRFTISRDNAKNTGYLQMNILKPEDTAFYYCAARWNRGRYDYWGQGTQVTVSS”, the “polyreactivity (PSR sort gate)” value was “high polyreactivity”. With “QVQLVESGGGLVQAGGSLRISCAASGRIYYRYAMGWYRQAPGKERELVASISGSGGRTYYADSVKGRFTISRDNAKNTVYLQMNSLKPEDTAVYYCAARIRPSYDWGQGTQVTVSS” the “polyreactivity (PSR sort gate)” value was “high polyreactivity”. In the case of “QVQLVESGGGLVQAGGSLRLSCAASGSIFDSNAMGWYRQAPGKERELVAAITGSGSTNYADSVKGRFTISRDNAKNTVYLQMNSLKPEDTAVYYCNAQAPYTEFDYWGQGTQVTVSS”, the “polyreactivity (PSR sort gate)” value was “low polyreactivity”. With “QVQLVESGGGLVQAGGSLRLSCAASGSTFSKNTMGWYRQAPGKERELVAAITTRGSSTYYADSVKGRFTISRDNAKNTVYLQMNSLKPEDTAVYYCAAGRYGWKHVWYYYWGQGTQVTVSS” the “polyreactivity (PSR sort gate)” value was “high polyreactivity”. In the case of “QVQLVESGGGLVQAGGSLRLRCAASGNIFYGNAMGWYRQAPGKERELVAGITSGGSTNYADSVKGRFTISRDNAKNTVYLQMNSLKPEDTAVYYCNATSSGSIFGYDYWGQGTQVTVSS”, the “polyreactivity (PSR sort gate)” value was “low polyreactivity”. With “QVQLVESGGGLVQAGGSLRLSCAASGFTFVRYAMGWYRQAPGKERELVAAISRSSGSTYYADSVKGRFTISRDNAKNTVYLQMNSLKPEDTAVYYCARRYGRYSGTYDYWGQGTQVTVSS” the “polyreactivity (PSR sort gate)” value was “high polyreactivity”. With “QVQLVESGGGLVQSGGSLRLSCAASGITSHPYDMGWSRQAPGKERELVAVITSGGSTSYADSVKGRFTISRDNAKNTVYLQMNRLKPEDTAVYYCNADWFTPAQPWYRYFIRYDYWGQGTEVTVSS” the “polyreactivity (PSR sort gate)” value was “low polyreactivity”. In the case of “QVQLVESGGGLVQAGGSLRLSCAASGSTFDGYAMGWYRQAPGKERELVAAISSSGTSTYYADSVKGRFTISRDNAKNTVYLQMNSLKPEDTAVYYCAGKGATQSWAGDYWGQGTQVTVSS”, the “polyreactivity (PSR sort gate)” value was “low polyreactivity”. With “QVQLVESGGGIVQAGGSLRLSCAASGRTFQFYAMGWYRQEPGKERELVASITWSPVRTYYADSVKGRFTNSRDNAKNTVYLQMNSLKQEDTAVYSCAIDWDYRLMDYWGQGTQVTVSS” the “polyreactivity (PSR sort gate)” value was “low polyreactivity”. For “QVQLVESGGGLVQAGGSLRVSCASSGSIFLDNAMEWYRQAPGKERELVAAISYGDGSTYYADSVKGRITISRDNAKNTVYLQMNRLKPEDTAVYYCAAERYTIPPIYDYWGQGTQVTVSS”, the “polyreactivity (PSR sort gate)” value was “low polyreactivity”. In the case of “QVQLVESGGGLVQAGGSLRLSCADSGSTFVSYAMGWYRQAPGKERELVAVAISWSGGNTYYADSVKGRFTISRDNAKNTVYLQMNSLKPEDTAVYYCAAYGTTGVYRGPGYDYWGQGTQVTVSS”, the “polyreactivity (PSR sort gate)” value was “low polyreactivity”.
